Where no end group is shown, it is not given here. Side-chain parts run from the residue outwards. dermatan sulfate = dermatan sulfate, the glycan component of the peptidoglycan; BMPH = crosslinker coupling the Cys thiol to oxidized dermatan sulfate
Experiments:
[1] = biological target: Type I fibrillar collagen (Chronolog, Havertown, Pa.); test: plate assay on fibrillar collagen, biotin labeled peptidoglycan detected with streptavidin-HRP, Abs 450 nm
[2] = biological target: Type I fibrillar collagen (Chronolog, Havertown, Pa.); test: plate binding assay on fibrillar collagen, biotin label detected with streptavidin-HRP, saturation curve fit
[3] = biological target: Type I fibrillar collagen (Chronolog, Havertown, Pa.); test: diffusion from fibrillar collagen coated plate at 37° C., loaded at 10 µM, biotin label detected with streptavidin-HRP
[4] = biological target: collagen (type and supplier not stated; Examples 11 and 12); test: SPR (Biacore 2000, CM-3 chip), collagen immobilized, peptide in flow at 100 µM to 1.5 µM

Binder | EC50 (read off the curve) [1] [nM] | Kd [2] [nM] | amount remaining bound after 1 week of extensive rinsing (equivalent concentration) [3] [nM] | Kd [4] [nM]
RRANAALKAGELYKSILYGC([BMPH-dermatan sulfate]) (not fully specified (C-terminus); also: 18 SILY peptides per dermatan sulfate, 2 of them biotin labeled, biotin position not given here) [biotin labeled peptidoglycan DS-SILY18 (DS-SILY18-biotin)] | 20 | 24 | 10 | 
RRANAALKAGELYKSILYGC [peptide … (SILY)] |  |  |  | 1200
RRANAALKAGELYKSILYGC([BMPH-dermatan sulfate]) (not fully specified (C-terminus); also: 4 SILY peptides per dermatan sulfate, biotin label on every peptide, position not given here) [biotin labeled peptidoglycan DS-SILY4 (DS-SILY4-biotin)] | 100 | 118 |  | 
